Consider 57 substances from patent publication US20210130436A1.

“And” between values parts separate entries of the source, which are not always exact repeats. Identical values can stand only once.

Chain of Wild Type PD-L2 IgV-Fc (Q9BQ51 20-121): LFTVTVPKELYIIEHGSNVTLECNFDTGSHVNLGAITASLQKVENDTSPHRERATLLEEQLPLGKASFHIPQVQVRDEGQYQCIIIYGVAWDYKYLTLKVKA

In one assay the target is human CTLA4 (full-length, expressed on CHO cells) (human) (UniProt P16410). Description: flow cytometry, CHO cells expressing huCTLA4, PE anti-human Fc. On the technique in general: Flow cytometry measures light scatter and fluorescence of single cells or particles in a stream.
Chain of human CTLA4 (full-length, expressed on CHO cells) (human) (P16410 36-223): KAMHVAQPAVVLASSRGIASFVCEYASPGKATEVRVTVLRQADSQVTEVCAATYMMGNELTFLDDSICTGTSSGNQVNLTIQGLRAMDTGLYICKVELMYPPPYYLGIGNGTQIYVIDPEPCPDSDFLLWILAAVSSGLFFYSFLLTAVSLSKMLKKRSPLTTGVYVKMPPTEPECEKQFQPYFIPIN
The substance “variant CD80 IgV-Fc Q33L/E35D/M47I (from UniProt P33681 35-141) (Fc fusion)” returned an MFI at 33.3 nM of 15900 MFI.
“variant CD80 IgV-Fc Q33K/E35D/D46V/L85Q (from UniProt P33681 35-141) (Fc fusion)” gave an MFI at 33.3 nM of 8510 MFI.

The next assay addresses human CD28, full length, expressed on transfected HEK293 cells (human) (UniProt P10747). The experiment in a line: flow cytometry, HEK293 cells transfected with human CD28.
In turn, “variant CD80 IgV-Fc V22L/E35D/M43L/A71G/D76H (from UniProt P33681 35-141) (Fc fusion)” yielded an MFI at 66.6 nM of 1500 MFI.
As to “variant CD80 IgV-Fc N55I/T57I/I69F (from UniProt P33681 35-141) (Fc fusion)”, the MFI at 66.6 nM was determined as 1900 MFI.
Take “variant CD80 IgV-Fc Y31H/E35D/T41S/V68L/K93R/R94W (from UniProt P33681 35-141) (Fc fusion)”: the MFI at 66.6 nM came out at 2450 MFI.
For “variant CD80 IgV-Fc A26E/E35D/M47L/L85Q (from UniProt P33681 35-141) (Fc fusion)”, the MFI at 66.6 nM was found to be 2270 MFI.

For the next assay, the target named is PD-L1 on K562/OKT3/PD-L1 artificial antigen presenting cells (UniProt Q9NZQ7). Description: cell-based or functional assay.
Chain of PD-L1 on K562/OKT3/PD-L1 artificial antigen presenting cells (Q9NZQ7 19-290): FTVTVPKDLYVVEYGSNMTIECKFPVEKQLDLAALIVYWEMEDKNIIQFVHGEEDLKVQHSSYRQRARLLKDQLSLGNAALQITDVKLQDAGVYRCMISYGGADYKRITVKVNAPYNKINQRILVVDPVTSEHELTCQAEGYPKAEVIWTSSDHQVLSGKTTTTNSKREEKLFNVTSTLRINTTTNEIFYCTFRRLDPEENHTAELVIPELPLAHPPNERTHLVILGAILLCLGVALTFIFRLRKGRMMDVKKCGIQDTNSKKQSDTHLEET
For “CD80 Q27H/E35D/D46V/M47L/A71G IgV-Fc (inert) (Fc fusion)”, the Fold Increase over WT CD80-IgV-Fc (RLU, Jurkat/IL2 + K562/OKT3/PD-L1 reporter assay, 50 nM) amounted to 4.7 fold and the Relative Luciferase Units (RLU), Jurkat/IL2 + K562/OKT3/PD-L1 reporter assay, CD80-Fc Conc 50 nM was found to be 978 RLU.
For the substance “CD80 E35D/T41S/M43I/M47L/A71G IgV-Fc (inert) (Fc fusion)”, the Fold Increase over WT CD80-IgV-Fc (RLU, Jurkat/IL2 + K562/OKT3/PD-L1 reporter assay, 50 nM) stood at 7.5 fold and the Relative Luciferase Units (RLU), Jurkat/IL2 + K562/OKT3/PD-L1 reporter assay, CD80-Fc Conc 50 nM was 1540 RLU.

The next assay has as its target CD28 on Jurkat/IL2 reporter cells (human) (UniProt P10747). The experiment in a line: cell-based or functional assay.
“CD80 Q27H/E35D/D46V/M47L/A71G IgV-Fc (inert) (Fc fusion)”: the Fold Increase over WT CD80-IgV-Fc (RLU, Jurkat/IL2 + K562/OKT3/PD-L1 reporter assay, 50 nM) was determined as 4.7 fold and the Relative Luciferase Units (RLU), Jurkat/IL2 + K562/OKT3/PD-L1 reporter assay, CD80-Fc Conc 50 nM came out at 978 RLU.
The matching figures for “CD80 E35D/T41S/M43I/M47L/A71G IgV-Fc (inert) (Fc fusion)”: 7.5 fold and 1540 RLU.

For another assay, the target named is PD-1 (PDCD1) (Homo sapiens (Human)) (UniProt Q15116). Description: cell-based or functional assay.
Chain of PD-1 (PDCD1) (Homo sapiens (Human)) (Q15116 21-288): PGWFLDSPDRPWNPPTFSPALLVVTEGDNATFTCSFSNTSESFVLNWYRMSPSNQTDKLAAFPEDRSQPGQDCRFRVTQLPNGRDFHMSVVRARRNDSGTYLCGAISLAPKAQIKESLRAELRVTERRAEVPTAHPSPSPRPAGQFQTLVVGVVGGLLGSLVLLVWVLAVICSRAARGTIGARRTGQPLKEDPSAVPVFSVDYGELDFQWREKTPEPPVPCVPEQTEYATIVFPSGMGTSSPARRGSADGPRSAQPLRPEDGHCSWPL
With “PD-L2 H15Q/R76G/I85F IgV-Fc (first entry) (from UniProt Q9BQ51 20-121) (Fc fusion)”, the IFN gamma levels pg/mL (MLR) worked out at 1730 pg/mL.
The substance “PD-L2 I13V/S67L/Q82R/V89D IgV-Fc (from UniProt Q9BQ51 20-121) (Fc fusion)” gave an IFN gamma levels pg/mL (MLR) of 1370 pg/mL.
Substance “PD-L2 I13V/H15Q/E44V/T47A/Q82R/V89D IgV-Fc (from UniProt Q9BQ51 20-121) (Fc fusion)” yielded an IFN gamma levels pg/mL (MLR) of 1270 pg/mL.
In turn, “PD-L2 H15Q/C23S/I86T IgV-Fc (from UniProt Q9BQ51 20-121) (Fc fusion)” had an IFN gamma levels pg/mL (MLR) of 1850 pg/mL.
As to “PD-L2 E44D IgV-Fc (from UniProt Q9BQ51 20-121) (Fc fusion)”, the IFN gamma levels pg/mL (MLR) is 1500 pg/mL.
Still for that read-out and setting: with “PD-L2 H15Q/S67L/R76G/I85F IgV-Fc (from UniProt Q9BQ51 20-121) (Fc fusion)” the figure was 1320 pg/mL; with “PD-L2 I13V/H15Q/T47A/Q72H/R76G IgV-Fc (from UniProt Q9BQ51 20-121) (Fc fusion)”, 1470 pg/mL; with “PD-L2 H15Q/V89D IgV-Fc (from UniProt Q9BQ51 20-121) (Fc fusion)”, 1500 pg/mL.
The substance “PD-L2 H15Q/T47A/Q72H/R76G IgV-Fc (from UniProt Q9BQ51 20-121) (Fc fusion)” returned an IFN gamma levels pg/mL (MLR) of 1460 pg/mL.
For the substance “PD-L2 N24D IgV-Fc (from UniProt Q9BQ51 20-121) (Fc fusion)”, the IFN gamma levels pg/mL (MLR) stood at 1980 pg/mL.
“PD-L2 I13V/Q72H/R76G/I86T IgV-Fc (from UniProt Q9BQ51 20-121) (Fc fusion)” gave an IFN gamma levels pg/mL (MLR) of 1950 pg/mL.
In turn, “PD-L2 I13V/H15Q/Q82R IgV-Fc (from UniProt Q9BQ51 20-121) (Fc fusion)” gave an IFN gamma levels pg/mL (MLR) of 1430 pg/mL.
In turn, “PD-L2 H15Q/S39I/I86T IgV-Fc (from UniProt Q9BQ51 20-121) (Fc fusion)” had an IFN gamma levels pg/mL (MLR) of 1420 pg/mL.
“PD-L2 I13V/H15Q/L33F/T47A/Q82R/V89D IgV-Fc (from UniProt Q9BQ51 20-121) (Fc fusion)” returned an IFN gamma levels pg/mL (MLR) of 1470 pg/mL.
“PD-L2 H15Q/K65R IgV-Fc (from UniProt Q9BQ51 20-121) (Fc fusion)” showed an IFN gamma levels pg/mL (MLR) of 1510 pg/mL.
“PD-L2 I13V/H15Q/E44D/V89D IgV-Fc (from UniProt Q9BQ51 20-121) (Fc fusion)” returned an IFN gamma levels pg/mL (MLR) of 1380 pg/mL.
For the substance “PD-L2 H15Q/T47A/K65R/S67L/Q82R/V89D IgV-Fc (from UniProt Q9BQ51 20-121) (Fc fusion)”, the IFN gamma levels pg/mL (MLR) came to 1340 pg/mL.
On the same count and under the same terms, the result for “PD-L2 S67L/I85F IgV-Fc (from UniProt Q9BQ51 20-121) (Fc fusion)” reads 1280 pg/mL; that for “PD-L2 H15Q/T47A/Q82R IgV-Fc (from UniProt Q9BQ51 20-121) (Fc fusion)”, 1320 pg/mL.
For the substance “PD-L2 E59G/Q82R IgV-Fc (from UniProt Q9BQ51 20-121) (Fc fusion)”, the IFN gamma levels pg/mL (MLR) was 1510 pg/mL.
Still for that read-out and setting: the result for “Wild Type PD-L2 IgV-Fc (from UniProt Q9BQ51 20-121) (Fc fusion)” reads 1380 pg/mL; that for “PD-L2 S39I/V89D IgV-Fc (from UniProt Q9BQ51 20-121) (Fc fusion)”, 1310 pg/mL; that for “PD-L2 H15Q/Q72H/V89D IgV-Fc (from UniProt Q9BQ51 20-121) (Fc fusion)”, 1270 pg/mL.
In turn, “PD-L2 H15Q/E44D/R76G/I85F IgV-Fc (from UniProt Q9BQ51 20-121) (Fc fusion)” gave an IFN gamma levels pg/mL (MLR) of 1390 pg/mL.
As to “PD-L2 H15Q/N32D/S67L/V89D IgV-Fc (from UniProt Q9BQ51 20-121) (Fc fusion)”, the IFN gamma levels pg/mL (MLR) was determined as 1290 pg/mL.
With “PD-L2 H15Q/L33H/S67L/R76G/Q82R/V89D IgV-Fc (from UniProt Q9BQ51 20-121) (Fc fusion)”, the IFN gamma levels pg/mL (MLR) was 1500 pg/mL.
With “PD-L2 I13V/H15Q/I36V/T47A/S67L/V89D IgV-Fc (from UniProt Q9BQ51 20-121) (Fc fusion)”, the IFN gamma levels pg/mL (MLR) was 1360 pg/mL.
Substance “PD-L2 I13V/H15Q/R76G/I85F IgV-Fc (from UniProt Q9BQ51 20-121) (Fc fusion)” registered an IFN gamma levels pg/mL (MLR) of 1530 pg/mL.
Still for that read-out and setting: with “PD-L2 I12V/I13V/H15Q/T47A/Q82R/V89D IgV-Fc (from UniProt Q9BQ51 20-121) (Fc fusion)” the figure was 1530 pg/mL.
On to “PD-L2 H15Q/S67L/R76G IgV-Fc (from UniProt Q9BQ51 20-121) (Fc fusion)”, for which the IFN gamma levels pg/mL (MLR) was found to be 1430 pg/mL.
On to “PD-L2 I13V/H15Q/T47A/Q82R/V89D IgV-Fc (from UniProt Q9BQ51 20-121) (Fc fusion)”, for which the IFN gamma levels pg/mL (MLR) was 1450 pg/mL and 1740 pg/mL.
Still for that read-out and setting: the result for “PD-L2 H15Q/L33P/T47A/S67L/P71S/V89D IgV-Fc (from UniProt Q9BQ51 20-121) (Fc fusion)” reads 1290 pg/mL.
The same measure, in the same setting: the result for “PD-L2 E44D/S67L/Q72H/Q82R/V89D IgV-Fc (from UniProt Q9BQ51 20-121) (Fc fusion)” reads 1280 pg/mL.

A further assay concerns the target CD28, endogenously expressed on Jurkat/IL2 reporter cells (human) (UniProt P10747). The experiment in a line: flow cytometry, Jurkat/IL2 reporter cells (endogenous CD28).
On to “variant CD80 IgV-Fc E35D/D46E/M47L/V68M/T79M/L85M/L97Q (from UniProt P33681 35-141) (Fc fusion)”, for which the MFI at 33.3 nM turned out to be 14 MFI.
With “variant CD80 IgV-Fc E35D/M47L/V68M/E95V/L97Q (from UniProt P33681 35-141) (Fc fusion)”, the MFI at 33.3 nM worked out at 14 MFI.
“variant CD80 IgV-Fc E24D/E35D/M47L/V68M/E95V/L97Q (from UniProt P33681 35-141) (Fc fusion)” returned an MFI at 33.3 nM of 15 MFI.
Take “variant CD80 IgV-Fc Q27L/Q33L/E35D/T41S/M47V/N48K/V68M/L85M (from UniProt P33681 35-141) (Fc fusion)”: the MFI at 33.3 nM was 15 MFI.
Turning to “variant CD80 IgV-Fc Q33R/E35D/M38I/M47L/V68M (from UniProt P33681 35-141) (Fc fusion)”, the MFI at 33.3 nM was 15 MFI.
In the case of “variant CD80 IgV-Fc Q33L/E35D/M47V/T62S/V68M/L85M (from UniProt P33681 35-141) (Fc fusion)”, the MFI at 33.3 nM was determined as 15 MFI.
Turning to “variant CD80 IgV-Fc R29C/E35D/M47L/V68M/A71G/L85M (from UniProt P33681 35-141) (Fc fusion)”, the MFI at 33.3 nM turned out to be 16 MFI.

The target in the next assay is human PD-L1, full length, expressed on transfected HEK293 cells (human) (UniProt Q9NZQ7). The experiment in a line: flow cytometry, HEK293 cells transfected with human PD-L1.
Chain of human PD-L1, full length, expressed on transfected HEK293 cells (human) (Q9NZQ7 19-290): as the sequence (Q9NZQ7 19-290) above
Substance “variant CD80 IgV-Fc E35D/T57A/A71D/L85Q (from UniProt P33681 35-141) (Fc fusion)” displayed an MFI at 22.2 nM of 1760 MFI.
“variant CD80 IgV-Fc V22L/E35G/A71D/L72P (from UniProt P33681 35-141) (Fc fusion)”: the MFI at 22.2 nM stood at 1400 MFI.
“variant CD80 IgV-Fc V22L/E35D/M43L/A71G/D76H (from UniProt P33681 35-141) (Fc fusion)”: the MFI at 22.2 nM was 1850 MFI.
“variant CD80 IgV-Fc V20I/A71D (from UniProt P33681 35-141) (Fc fusion)” had an MFI at 22.2 nM of 3550 MFI.
The same measure, in the same setting: with “variant CD80 IgV-Fc M47V/I69F/A71D/V83I (from UniProt P33681 35-141) (Fc fusion)” the figure was 3400 MFI.
Turning to “variant CD80 IgV-Fc H18Y/A71D/L72P/E88V (from UniProt P33681 35-141) (Fc fusion)”, the MFI at 22.2 nM is 1080 MFI.
Substance “variant CD80 IgV-Fc L70Q/A71D (from UniProt P33681 35-141) (Fc fusion)” returned an MFI at 22.2 nM of 1690 MFI.
The substance “variant CD80 IgV-Fc T13R/M42V/M47I/A71D (from UniProt P33681 35-141) (Fc fusion)” came in with an MFI at 22.2 nM of 1870 MFI.
Turning to “variant CD80 IgV-Fc Q27H/E35G/A71D/L72P/T79I (from UniProt P33681 35-141) (Fc fusion)”, the MFI at 22.2 nM was found to be 1450 MFI.
“variant CD80 IgV-Fc Q27L/E35D/M47I/T57I/L70Q/E88D (from UniProt P33681 35-141) (Fc fusion)” showed an MFI at 22.2 nM of 1050 MFI.
